Reference: publication PMC11779849

Experiments:
[1] = molecular target: full length W2A-Pcad with an mCherry tag on the C-terminus (human); assay: co-IP; lysates of A431 Pcad-mCherry cells grown 48 h without or with CQY684 Fab (200 nM); anti-mCherry rabbit mAb on magnetic protein G beads pulls down Pcad as bait; p120 detected by Western blot, p120/Pcad ratio normalised to WT -CQY; M2 lysis buffer pH 7.5, 50 mM Tris-HCl, 150 mM NaCl, 1% SDS, 1% Triton-X 100
[2] = molecular target: full length WT-Pcad with an mCherry tag on the C-terminus (human) (UniProt P22223); assay: as above
Sequence of full length WT-Pcad with an mCherry tag on the C-terminus (human) (P22223 25-829): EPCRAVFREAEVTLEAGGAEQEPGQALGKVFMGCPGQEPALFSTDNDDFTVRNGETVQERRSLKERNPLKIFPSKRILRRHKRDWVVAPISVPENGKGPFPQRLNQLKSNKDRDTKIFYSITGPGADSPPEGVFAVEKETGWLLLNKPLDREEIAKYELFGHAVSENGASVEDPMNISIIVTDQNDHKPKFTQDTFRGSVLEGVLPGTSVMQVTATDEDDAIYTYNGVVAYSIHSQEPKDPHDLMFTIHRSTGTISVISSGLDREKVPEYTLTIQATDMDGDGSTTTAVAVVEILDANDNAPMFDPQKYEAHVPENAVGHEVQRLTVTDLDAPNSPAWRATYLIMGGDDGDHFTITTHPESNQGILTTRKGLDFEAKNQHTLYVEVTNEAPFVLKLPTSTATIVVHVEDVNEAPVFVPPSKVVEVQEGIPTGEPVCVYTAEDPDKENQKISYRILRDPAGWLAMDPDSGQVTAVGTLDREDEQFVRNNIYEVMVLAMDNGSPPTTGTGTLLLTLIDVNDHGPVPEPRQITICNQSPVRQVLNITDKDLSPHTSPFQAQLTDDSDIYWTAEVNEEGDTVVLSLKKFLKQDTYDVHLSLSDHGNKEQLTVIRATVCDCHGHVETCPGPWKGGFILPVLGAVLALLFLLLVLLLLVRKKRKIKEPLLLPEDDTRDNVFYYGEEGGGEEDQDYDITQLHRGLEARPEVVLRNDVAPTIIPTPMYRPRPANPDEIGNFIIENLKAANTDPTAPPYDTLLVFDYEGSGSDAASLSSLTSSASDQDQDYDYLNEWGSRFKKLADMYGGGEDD

Sequence of full length W2A-Pcad with an mCherry tag on the C-terminus (human) (P22223 whole entry W109A): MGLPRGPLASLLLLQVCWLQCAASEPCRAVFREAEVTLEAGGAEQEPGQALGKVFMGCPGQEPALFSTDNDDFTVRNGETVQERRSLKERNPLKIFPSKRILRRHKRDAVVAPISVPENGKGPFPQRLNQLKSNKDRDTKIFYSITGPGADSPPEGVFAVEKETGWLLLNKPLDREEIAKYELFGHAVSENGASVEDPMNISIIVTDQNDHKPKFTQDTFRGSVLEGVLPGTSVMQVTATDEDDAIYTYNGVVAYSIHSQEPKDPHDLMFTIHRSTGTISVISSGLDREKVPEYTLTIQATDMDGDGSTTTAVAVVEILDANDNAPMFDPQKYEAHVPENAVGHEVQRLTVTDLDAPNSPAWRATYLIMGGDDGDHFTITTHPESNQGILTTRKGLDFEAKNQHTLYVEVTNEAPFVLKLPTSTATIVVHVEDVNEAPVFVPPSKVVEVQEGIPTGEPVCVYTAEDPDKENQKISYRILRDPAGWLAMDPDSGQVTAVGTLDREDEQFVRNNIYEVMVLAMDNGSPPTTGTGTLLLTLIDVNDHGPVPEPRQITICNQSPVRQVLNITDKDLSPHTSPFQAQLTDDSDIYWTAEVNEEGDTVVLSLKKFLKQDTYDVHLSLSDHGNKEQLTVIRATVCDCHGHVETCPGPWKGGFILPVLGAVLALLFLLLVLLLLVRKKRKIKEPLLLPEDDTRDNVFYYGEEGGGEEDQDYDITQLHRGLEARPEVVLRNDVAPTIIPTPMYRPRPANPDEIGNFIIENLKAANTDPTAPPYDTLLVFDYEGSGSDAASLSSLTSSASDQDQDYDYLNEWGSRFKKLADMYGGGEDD

B1: p120-catenin (natural protein)
chain: MDDSEVESTASILASVKEQEAQFEKLTRALEEERRHVSAQLERVRVSPQDANPLMANGTLTRRHQNGRFVGDADLERQKFSDLKLNGPQDHSHLLYSTIPRMQEPGQIVETYTEEDPEGAMSVVSVETSDDGTTRRTETTVKKVVKTVTTRTVQPVAMGPDGLPVDASSVSNNYIQTLGRDFRKNGNGGPGPYVGQAGTATLPRNFHYPPDGYSRHYEDGYPGGSDNYGSLSRVTRIEERYRPSMEGYRAPSRQDVYGPQPQVRVGGSSVDLHRFHPEPYGLEDDQRSMGYDDLDYGMMSDYGTARRTGTPSDPRRRLRSYEDMIGEEVPSDQYYWAPLAQHERGSLASLDSLRKGGPPPPNWRQPELPEVIAMLGFRLDAVKSNAAAYLQHLCYRNDKVKTDVRKLKGIPVLVGLLDHPKKEVHLGACGALKNISFGRDQDNKIAIKNCDGVPALVRLLRKARDMDLTEVITGTLWNLSSHDSIKMEIVDHALHALTDEVIIPHSGWEREPNEDCKPRHIEWESVLTNTAGCLRNVSSERSEARRKLRECDGLVDALIFIVQAEIGQKDSDSKLVENCVCLLRNLSYQVHREIPQAERYQEAAPNVANNTGPHAASCFGAKKGKDEWFSRGKKPIEDPANDTVDFPKRTSPARGYELLFQPEVVRIYISLLKESKTPAILEASAGAIQNLCAGRWTYGRYIRSALRQEKALSAIADLLTNEHERVVKAASGALRNLAVDARNKELIGKHAIPNLVKNLPGGQQNSSWNFSEDTVISILNTINEVIAENLEAAKKLRETQGIEKLVLINKSGNRSEKEVRAAALVLQTIWGYKELRKPLEKEGWKKSDFQVNLNNASRSQSSHSYDDSTLPLIDRNQKSDKKPDREEIQMSNMGSNTKSLDNNYSTPNERGDHNRTLDRSGDLGDMEPLKGTTPLMQDEGQESLEEELDVLVLDDEGGQVSYPSMQKI
[1]
  p120 associated with Pcad, percent of the WT -CQY condition: 30%
[2]
  p120 associated with Pcad in cells grown with CQY684 Fab, percent of the WT -CQY condition: 60%
